Assay results published in US20180187196, “INHIBITORS OF DEK PROTEIN AND RELATED METHODS” (THE REGENTS OF THE UNIVERSITY OF MICHIGAN, published 2018).

T1: DEK (Homo sapiens, UniProt P35659 P35659:1-375)
T1 sequence: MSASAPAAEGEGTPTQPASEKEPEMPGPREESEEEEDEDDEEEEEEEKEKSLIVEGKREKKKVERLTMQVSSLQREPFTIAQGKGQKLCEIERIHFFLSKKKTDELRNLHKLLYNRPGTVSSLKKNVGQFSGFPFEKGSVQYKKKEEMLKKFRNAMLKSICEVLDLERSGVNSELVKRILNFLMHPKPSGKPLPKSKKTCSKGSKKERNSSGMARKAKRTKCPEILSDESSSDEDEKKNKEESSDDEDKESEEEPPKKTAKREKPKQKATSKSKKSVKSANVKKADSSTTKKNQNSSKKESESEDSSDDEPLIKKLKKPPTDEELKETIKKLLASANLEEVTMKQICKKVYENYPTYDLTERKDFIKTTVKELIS

B1: DEK aptamer 64 (ssDNA)
DNA: ATAGGGAGTCGACCGACCAGAAGGGGTTAAATATTCCCACATTGCCTGCGCCAGTACAAATAGTATGTGCGTCTACATCTAGACT
B2: DEK aptamer 85 (ssDNA)
DNA: ATAGGGAGTCGACCGACCAGAATACCGTGGCATCTGGTTGTAGCATCACGTCTTATGCGGCCGTATGTGCGTCTACATCTAGACT

Target: T1, DEK
Assay: Southwestern blot on denatured DEK with salmon sperm DNA competitor; 300 mM NaCl wash; not quantitated; clones preselected by dot blot filter binding
Conditions: tags: His-tag (pBlueBacHis2A baculovirus, HighFive cells, Ni-NTA purified); label: 5'-32P
Description: After determining the sequences of individual aptamer clones, the corresponding DNA oligonucleotides with and without 5′ and 3′ priming sequences were ordered from IDT (Coralville, Iowa), and radiolabeled with ³²P according to the NEB T4 Kinase kit protocol as above. Binding was then tested using a southwestern blot of purified DEK protein. A conventional western blot was performed using PVDF Immobillon P (EMDMillipore, Darmstadt, Germany). After the transfer, the membrane was soaked in PreHyb buffer [(10 mM Hepes (pH 7.9), 100 ug/mL salmon sperm DNA (Sigma-Aldrich, St. Louis, Mo.), 5% bovine serum albumin (Sigma-Aldrich, St. Louis, Mo.)] for 30 min on the shaker at room temperature to block the membrane. The PreHyb buffer was then removed and 5 mL of Hyb Buffer [(10 mM Hepes (pH 7.9), 50 mM NaCl, 1 mM EDTA, 1 mM DTT, 0.25% BSA, 2 ug/ul salmon sperm DNA, 50 million CPM aptamer)] was added and incubated on the shaker at room temperature for one hour. The Hyb Buffer was removed and the membrane was washed 3× on the shaker at room temperature for 20 min with wash buffer [(10 mM Hepes (pH 7.9), 300 mM NaCl, 1 mM EDTA, 1 mM DTT, 0.25% BSA)]. The membranes were dried and exposed on a Typhoon Phosphor imager (GE Healthcare, Pittsburgh, Pa.) cassette overnight to visualize the radiolabeled DNA bound to the bands corresponding to DEK protein. […] No quantitation was determined.

| Binder | binding result |
| --- | --- |
| B1 | binds |
| B2 | binds |
